Eight substances from publication PMC4225172 can be followed below.

Test [1] deals with BoLA-3*00201 (JSP.1) heavy chain folded with recombinant human β2m (cattle (Holstein) | human) (UniProt P61769). As to the kind of experiment: AlphaScreen or HTRF.
The target of test [2] is BoLA-1*02301 (D18.4) heavy chain folded with recombinant human β2m (cattle (Holstein) | human) (UniProt P61769). Nature of the test: AlphaScreen or HTRF.
The target in test [3] is BoLA-2*01201 (T2A) heavy chain folded with recombinant human β2m (cattle (Holstein) | human) (UniProt P61769). As to the kind of experiment: AlphaScreen or HTRF. In general terms: In Alpha technology, singlet oxygen from a donor bead excites a nearby acceptor bead.
For test [4], the target named is BoLA-2*01201 (T2A) heavy chain folded with 125I-radiolabeled bovine met-β2m (cattle (Holstein) | bovine) (UniProt P01888). As to the kind of experiment: scintillation proximity assay. (In a scintillation proximity assay essentially only radioactivity close to the scintillant gives light.)
The target of test [5] is BoLA-T2C heavy chain folded with recombinant human β2m (cattle (Bos taurus×Bos indicus) | human) (UniProt P61769). As to the kind of experiment: AlphaScreen or HTRF.
Test [6] concerns the target BoLA-3*00201 (JSP.1) heavy chain folded with 125I-radiolabeled bovine met-β2m (cattle (Holstein) | bovine) (UniProt P01888). As to the kind of experiment: scintillation proximity assay.
The target in test [7] is BoLA-3*00101 (AW10) heavy chain folded with 125I-radiolabeled bovine met-β2m (cattle (Boran) | bovine) (UniProt P01888). Nature of the test: scintillation proximity assay.
Test [8] has as its target BoLA-1*02301 (D18.4) heavy chain folded with 125I-radiolabeled bovine met-β2m (cattle (Holstein) | bovine) (UniProt P01888). Nature of the test: scintillation proximity assay.

With Ta9 epitope […] (peptide), the Kd amounted to 0.309 µM in test [1] and 0.074 µM in test [2].
Tp2 49–59 epitope […] (peptide): the EC50 in test [3] was 0.364 µM. In addition, in test [4], the half-life of the pBoLA-I complex turned out to be 2 h.
As for Tp2 96–104 epitope […] (peptide), the values for the EC50 in test [5] and in test [1] were 0.144 µM and 0.767 µM, respectively. The same substance returned a half-life of the pBoLA-I complex in test [6] of 4 h.
In test [4], Tp2 98–106 epitope […] (peptide) came in with a half-life of the pBoLA-I complex of 3 h.
For the substance Tp4 328–336 epitope … (peptide), the half-life of the pBoLA-I complex in test [7] was found to be 23 h; in test [6], 2 h.
For the substance Tp5 87–95 epitope … (peptide), the half-life of the pBoLA-I complex in test [8] is 18 h.
Turning to Tp8 379–387 epitope […] (peptide), the half-life of the pBoLA-I complex in test [7] came to 14 h; in test [6], 2 h.
Tp9 199–228 epitope […] (peptide) showed a half-life of the pBoLA-I complex in test [8] of 4 h.

As usually defined, the Kd is the free concentration of one partner at which half of the binding sites on the other are occupied at equilibrium, for simple one-to-one binding. A word on the EC50: it is the concentration that produces a half-maximal response.
